{"source": "paper PMC4019489", "about": "(Molecular Biology of the Cell, 2014)", "proteins": {"B1": {"name": "soluble, C-terminally His-tagged extracellular domain of WT JAM-A (junctional adhesion molecule-A) (domain or fragment, UniProt Q9Y624 28-238, looked up)", "chain": "SVTVHSSEPEVRIPENNPVKLSCAYSGFSSPRVEWKFDQGDTTRLVCYNNKITASYEDRVTFLPTGITFKSVTREDTGTYTCMVSEEGGNSYGEVKVKLIVLVPPSKPTVNIPSSATIGNRAVLTCSEQDGSPPSEYTWFKDGIVMPTNPKSTRAFSNSSYVLNPTTGELVFDPLSASDTGEYSCEARNGYGTPMTSNAVRMEAVERNVGV"}}, "target": "the molecule itself", "assay": "SEC"}
{"protein": "B1", "values": [{"measurement": "stoichiometry N", "value": 2}]}
